Kd data for one substance are collected here from patent US20240158538A1.

The target in the test is VISTA (analyte in the BLI assay with VSIG-3) (Homo sapiens (Human)) (UniProt Q9H7M9). Description: BLI (Octet QK384), 100 nM Fc-tagged VSIG-3 on anti-human Fc biosensor, VISTA from 3000 nM in solution. Background: BLI is a label-free optical method that tracks binding on a fibre tip over time.

Regarding “Fc-tagged VSIG-3 (from UniProt Q5DX21 23-241) (Fc fusion)”, the Kd stood at 5.28 µM.

By Kd is commonly meant the concentration at which binding is half-saturated. Read a low Kd as higher affinity.
